Measured values: patent US10364299B2, “Derivatives obtained from hyaluronic acid and carnosine” (CONSIGLIO NAZIONALE DELLE RICERCHE, priority 2014, dated 2019)

Assays:
[1] = molecular target: T1, human serum carnosinase (CN1) (Homo sapiens, UniProt Q96KN2); test: Enzymatic hydrolysis by human serum carnosinase; format: in vitro ADME; conditions: 900 μM, 37°C, 50 mM Tris/HCl pH 8.0, 5 hours; versus non-conjugated carnosine
T1 construct: made in house; host or cells: HeLa cells, stably transfected; enzyme purified from the culture medium
T1 sequence (Q96KN2 26-507): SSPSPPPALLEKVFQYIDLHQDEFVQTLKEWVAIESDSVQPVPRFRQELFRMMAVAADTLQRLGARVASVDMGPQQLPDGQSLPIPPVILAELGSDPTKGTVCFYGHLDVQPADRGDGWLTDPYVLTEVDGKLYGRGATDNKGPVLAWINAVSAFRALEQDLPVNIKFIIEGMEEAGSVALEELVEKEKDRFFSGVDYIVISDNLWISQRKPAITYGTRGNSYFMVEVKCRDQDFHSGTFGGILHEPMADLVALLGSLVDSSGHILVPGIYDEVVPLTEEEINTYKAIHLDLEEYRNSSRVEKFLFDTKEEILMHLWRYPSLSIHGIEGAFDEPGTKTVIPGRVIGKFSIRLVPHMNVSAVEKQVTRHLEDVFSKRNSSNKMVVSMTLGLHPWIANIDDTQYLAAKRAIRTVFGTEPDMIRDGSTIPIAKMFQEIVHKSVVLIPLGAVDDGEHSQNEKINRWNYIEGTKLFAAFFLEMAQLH
Protocol: The time-dependent stability of HyCar with respect to human serum carnosinase, compared with the stability of the mixture of carnosine+HA or carnosine alone, was determined by incubating each of these substances (900 μM) at 37° C. in 50 mM Tris/HCl (pH 8.0) with the above-mentioned enzyme (CN1), purified by the culture medium of Hela cells stably transfected as previously indicated (Antioxid. Redox Signal., 11, 2759, 2009). A parallel experiment was effected as negative control, in which hyaluronic acid alone was subjected to enzymatic action. The course of the reaction was followed by collecting, at various time intervals, 50 μl aliquots of the mixture for a total of 5 hours, and, after deproteinization with trichloroacetic acid (TCA), fluorometrically determining the quantity of histidine in the final solution, after reaction with ortho-phthalic aldehyde (OPA; Fluka), according to a procedure already described (Clin. Chim. Acta, 1982, 123, 221).
More specifically, FIG. 5 indicates the stability with time of HyCar (●), subjected to the action of human serum carnosinase, compared with the stability of carnosine (▪), carnosine+HA (▴), and HA alone (♦)(the latter used as negative control of the experiment). The histidine released was spectrophotometrically determined as OPA-derivative.

[2] = Intrinsic viscosity by size exclusion chromatography with triple detector; format: physicochemical; conditions: for Intrinsic viscosity: 40°C, 0.1M sodium nitrate
Protocol: Experiments aimed at determining the molecular weight distribution (MWD) and the intrinsic viscosity of the conjugated HyCar were effected on a CPG/SEC chromatographic system equipped with a Malvern triple detector (ViscoteckTDmax).
The parameters indicated above were determined by means of size exclusion chromatography carried out on the chromatographic system GPCmax VE 2001 (Malvern), equipped with two TSK-GEL GMPWXL columns (7.8 mm ID×30 cm; Viscotek-TOSOH BIOSCIENCE) installed in series. The system is coupled with a system of three detectors positioned in series and comprising: a refraction index detector, a light scattering detector and a four-capillary differential viscometer. The sample was eluted using an aqueous solution 0.1M of sodium nitrate containing 0.5 g/L of sodium azide with a flow of 0.6 ml/min, at 40° C. The software Omnisec 4.1 was used for the acquisition and data analysis.
The physical parameters relating to the intrinsic viscosity and molecular weight (MW), determined at different concentrations for the conjugate of hyaluronic acid-carnosine, compared with those of the corresponding hyaluronic acid, determined by means of size exclusion chromatography coupled with a triple detector, are indicated in Table 1 below.

Question: For “conjugated 3-N-hyaluronyl of 2-(3-aminopropanamide)-3-(1H-imidazol-4-yl)propanoic acid [HyCar (7%)190 kD]”, which “resistance to the action of human serum carnosinase” value [1] is on record?
Answer: greater resistance

Question: What about the “intrinsic viscosity compared with non-conjugated hyaluronic acid of the same MW (in words)” value [2] of the same substance?
Answer: only slightly lower

Question: And the Intrinsic viscosity ([2]; theoretical conc. 0.1 mg/ml)?
Answer: 4.9 dL/g

Question: What about the Intrinsic viscosity ([2]; theoretical conc. 0.25 mg/ml) of the same substance?
Answer: 4.8 dL/g

Question: And the Intrinsic viscosity ([2]; theoretical conc. 0.5 mg/ml)?
Answer: 4.8 dL/g
